Like-named read-outs stand apart in the source and are kept apart here.
Legend:
[1] = target: T1, T4 DNA ligase (Enterobacteria phage T4?) (UniProt P00970); details: 5'-phosphate, 25 C
T1 sequence: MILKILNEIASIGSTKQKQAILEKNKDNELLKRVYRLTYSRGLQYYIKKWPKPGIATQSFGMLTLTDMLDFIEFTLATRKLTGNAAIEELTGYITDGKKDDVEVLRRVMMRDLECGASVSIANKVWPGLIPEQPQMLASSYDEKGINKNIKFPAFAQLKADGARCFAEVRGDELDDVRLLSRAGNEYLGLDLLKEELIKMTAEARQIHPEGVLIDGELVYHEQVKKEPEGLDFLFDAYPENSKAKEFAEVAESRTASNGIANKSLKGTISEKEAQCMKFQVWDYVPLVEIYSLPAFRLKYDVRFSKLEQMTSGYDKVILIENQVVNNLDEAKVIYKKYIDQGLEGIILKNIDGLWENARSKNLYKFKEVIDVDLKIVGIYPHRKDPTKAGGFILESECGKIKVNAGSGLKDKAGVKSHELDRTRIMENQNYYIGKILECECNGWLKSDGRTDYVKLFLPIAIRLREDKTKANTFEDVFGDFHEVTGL

[2] = target: T1, T4 DNA ligase (Enterobacteria phage T4?)
SapI = target: T2, SapI (UniProt O52712); assay: cleavage_in_vitro; details: SapI digestion giving 3-base overhang
T2 sequence: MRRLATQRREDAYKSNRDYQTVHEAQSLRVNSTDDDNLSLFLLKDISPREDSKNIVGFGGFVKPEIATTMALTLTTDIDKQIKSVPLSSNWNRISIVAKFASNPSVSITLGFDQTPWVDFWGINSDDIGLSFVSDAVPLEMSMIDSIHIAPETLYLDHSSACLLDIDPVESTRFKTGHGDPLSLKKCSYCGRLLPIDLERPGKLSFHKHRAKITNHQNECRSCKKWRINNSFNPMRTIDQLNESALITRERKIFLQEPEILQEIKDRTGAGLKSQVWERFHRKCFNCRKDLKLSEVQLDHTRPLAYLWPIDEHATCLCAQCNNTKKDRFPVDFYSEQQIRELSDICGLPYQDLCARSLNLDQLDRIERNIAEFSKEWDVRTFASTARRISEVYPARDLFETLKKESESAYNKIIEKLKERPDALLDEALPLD

NNNCGAAGAGCTGCGATCCAGTGCGCCGTGCATTGATCAACGCAANNNNNNATCTCTCTCTTTTCCTCCTCCTCCGTTGTTGTTGTTGAGAGAGATNNNNNNTTGCGTTGATCAATGCACGGCGCACTGGATCGCAGCTCTTCG [TAA 3-base overhang substrate]
binding signal ([1]; correct ligations only 209.0 x10-5): 98.6 % fidelity

TNN/GNN mismatch overhang substrate
relative ligation rate (relative to GNN/TNN) ([2]; stated as about 80-fold slower than 5'-G mismatch): 0.0125

NNNCGAAGAGCTGCGATCCAGTGCGCCGTGCATTGATCAACGCAANNNNNNATCTCTCTCTTTTCCTCCTCCTCCGTTGTTGTTGTTGAGAGAGATNNNNNNTTGCGTTGATCAATGCACGGCGCACTGGATCGCAGCTCTTCG [GGC 3-base overhang substrate]
binding signal ([1]; correct ligations 864.7 x10-5): 53.6 % fidelity

GNN/TNN mismatch overhang substrate
relative ligation rate (fold faster than TNN/GNN) ([2]; ligation of edge G:T mismatch): 80

NNNCGAAGAGCTGCGATCCAGTGCGCCGTGCATTGATCAACGCAANNNNNNATCTCTCTCTTTTCCTCCTCCTCCGTTGTTGTTGTTGAGAGAGATNNNNNNTTGCGTTGATCAATGCACGGCGCACTGGATCGCAGCTCTTCG [AAA 3-base overhang substrate]
binding signal ([1]; correct ligations 1403.8 x10-5): 99.2 % fidelity

TCAGGTNNNCGAAGAGCTGCGATCCAGTGCGCCGTGCATTGATCAACGCAANNNNNNATCTCTCTCTTTTCCTCCTCCTCCGTTGTTGTTGTTGAGAGAG [ligation library precursor (extended)]
activity (SapI): > 95 % cut

— US20220098577
